Results from the supplement of paper PMC9112550, “Optimization of the antimicrobial peptide Bac7 by deep mutational scanning” (BMC Biology, 2022).

Test system: Escherichia coli TOP10
Assay: shrunken log2 fold change of peptide-encoding DNA abundance (4.5 h post-induction vs induction); higher = less antimicrobial activity (less host growth inhibition)
Conditions: time post-induction: 4.5 h; library: site-saturation at positions 5, 18, 19, 20
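Note: peptides expressed intracellularly from a pBAD plasmid library in pooled LB shake-flask culture, induced with 0.3% L-arabinose, DNA abundance read by NGS, three biological replicates, DESeq2 with apeglm shrinkage.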

| Sequence | shrunken log2 fold change |
| --- | --- |
| RRIRQRPPRLPRPRPRPAQFPRP | 0.237 |
| RRIRARPPRLPRPRPRPASVPRP | 0.261 |
| RRIRIRPPRLPRPRPRPYFDPRP | -0.711 |
| RRIRERPPRLPRPRPRPRQYPRP | -0.369 |
| RRIRWRPPRLPRPRPRPNVFPRP | -0.304 |
| RRIRLRPPRLPRPRPRPIEEPRP | 0.0311 |
| RRIRCRPPRLPRPRPRPQPFPRP | 0.00986 |
| RRIRVRPPRLPRPRPRPRPIPRP | 0.611 |
| RRIRMRPPRLPRPRPRPIYQPRP | -0.236 |
| RRIRCRPPRLPRPRPRPFCFPRP | -0.0725 |
| RRIRRRPPRLPRPRPRPMNGPRP | -0.0419 |
| RRIRFRPPRLPRPRPRPPSGPRP | 0.422 |
| RRIRNRPPRLPRPRPRPKPIPRP | 0.202 |
| RRIRYRPPRLPRPRPRPGEWPRP | 0.0486 |
| RRIRMRPPRLPRPRPRPGLTPRP | 1.02 |
| RRIRYRPPRLPRPRPRPGNNPRP | -0.359 |
| RRIRDRPPRLPRPRPRPHLMPRP | -0.283 |
| RRIRNRPPRLPRPRPRPIDGPRP | -0.00962 |
| RRIRSRPPRLPRPRPRPNSCPRP | -0.121 |
| RRIRKRPPRLPRPRPRPLRLPRP | 1.16 |
| RRIRVRPPRLPRPRPRPMHNPRP | -0.268 |
| RRIRPRPPRLPRPRPRPYNAPRP | -0.608 |
| RRIRGRPPRLPRPRPRPFPMPRP | 0.533 |
| RRIRIRPPRLPRPRPRPIVIPRP | -0.103 |
| RRIRIRPPRLPRPRPRPSNHPRP | -1.15 |

| Sequence | shrunken log2 fold change |
| --- | --- |
| RRIRWRPPRLPRPRPRPLEVPRP | -0.0802 |
| RRIRCRPPRLPRPRPRPWEVPRP | 0.431 |
| RRIRRRPPRLPRPRPRPLADPRP | 0.311 |
| RRIRWRPPRLPRPRPRPVQNPRP | 0.316 |
| RRIRQRPPRLPRPRPRPTGFPRP | 0.051 |
| RRIRNRPPRLPRPRPRPNKDPRP | -0.0478 |
| RRIRIRPPRLPRPRPRPMNYPRP | -0.0706 |
| RRIRRRPPRLPRPRPRPIEIPRP | 0.0138 |
| RRIRYRPPRLPRPRPRPHPTPRP | -0.289 |
| RRIRERPPRLPRPRPRPACMPRP | -0.0379 |
| RRIRGRPPRLPRPRPRPELWPRP | 2.06 |
| RRIRRRPPRLPRPRPRPEPWPRP | 0.538 |
| RRIRNRPPRLPRPRPRPKMAPRP | -0.00757 |
| RRIRFRPPRLPRPRPRPWSCPRP | -0.175 |
| RRIRSRPPRLPRPRPRPVVMPRP | 0.0334 |
| RRIRRRPPRLPRPRPRPLNQPRP | 0.0755 |
| RRIRVRPPRLPRPRPRPDPIPRP | -0.00485 |
| RRIRARPPRLPRPRPRPFYDPRP | 0.314 |
| RRIRFRPPRLPRPRPRPAMGPRP | 0.119 |
| RRIRWRPPRLPRPRPRPWVCPRP | 0.186 |
| RRIRDRPPRLPRPRPRPWVWPRP | 0.702 |
| RRIRVRPPRLPRPRPRPVSKPRP | -0.249 |
| RRIRVRPPRLPRPRPRPSWDPRP | 0.192 |
| RRIRYRPPRLPRPRPRPAAMPRP | 1.99 |
| RRIRGRPPRLPRPRPRPRNIPRP | 0.0648 |

| Sequence | shrunken log2 fold change |
| --- | --- |
| RRIRERPPRLPRPRPRPLFTPRP | -0.55 |
| RRIRTRPPRLPRPRPRPQTNPRP | -0.199 |
| RRIRIRPPRLPRPRPRPGLAPRP | 0.201 |
| RRIRHRPPRLPRPRPRPNWEPRP | -0.0833 |
| RRIRFRPPRLPRPRPRPKRNPRP | 0.203 |
| RRIRFRPPRLPRPRPRPREHPRP | 0.0409 |
| RRIRQRPPRLPRPRPRPVGEPRP | 0.443 |
| RRIRWRPPRLPRPRPRPQVCPRP | 0.189 |
| RRIRSRPPRLPRPRPRPFAIPRP | -0.638 |
| RRIRDRPPRLPRPRPRPHYMPRP | -0.231 |
| RRIRCRPPRLPRPRPRPLPHPRP | 0.102 |
| RRIRFRPPRLPRPRPRPYMKPRP | -0.858 |
| RRIRGRPPRLPRPRPRPFPAPRP | 0.757 |
| RRIRVRPPRLPRPRPRPPTYPRP | -0.432 |
| RRIRVRPPRLPRPRPRPVHHPRP | -0.199 |
| RRIRFRPPRLPRPRPRPHVAPRP | 0.119 |
| RRIRGRPPRLPRPRPRPHQSPRP | 0.12 |
| RRIRARPPRLPRPRPRPPMAPRP | 0.484 |
| RRIRKRPPRLPRPRPRPQSQPRP | 0.249 |
| RRIRMRPPRLPRPRPRPSKKPRP | -0.0297 |
| RRIRQRPPRLPRPRPRPMGAPRP | 0.132 |
| RRIRIRPPRLPRPRPRPHPIPRP | -0.265 |
| RRIRARPPRLPRPRPRPDCFPRP | 0.715 |
| RRIRIRPPRLPRPRPRPMSDPRP | -0.102 |
| RRIRNRPPRLPRPRPRPMESPRP | -0.0333 |

| Sequence | shrunken log2 fold change |
| --- | --- |
| RRIRARPPRLPRPRPRPWAWPRP | 0.239 |
| RRIRCRPPRLPRPRPRPEEAPRP | 0.642 |
| RRIRDRPPRLPRPRPRPWMTPRP | -0.29 |
| RRIRCRPPRLPRPRPRPWCNPRP | -0.412 |
| RRIRMRPPRLPRPRPRPHKTPRP | 0.0147 |
| RRIRMRPPRLPRPRPRPTENPRP | 0.772 |
| RRIRKRPPRLPRPRPRPLLQPRP | 0.31 |
| RRIRWRPPRLPRPRPRPCYNPRP | -0.24 |
| RRIRYRPPRLPRPRPRPANSPRP | -0.11 |
| RRIRLRPPRLPRPRPRPQHDPRP | -0.0854 |
| RRIRARPPRLPRPRPRPDMEPRP | -0.0243 |
| RRIRFRPPRLPRPRPRPCDSPRP | -0.0928 |
| RRIRWRPPRLPRPRPRPWDSPRP | -0.287 |
| RRIRIRPPRLPRPRPRPIWYPRP | -1.64 |
| RRIRNRPPRLPRPRPRPLVSPRP | -0.185 |
| RRIRYRPPRLPRPRPRPMAAPRP | -0.115 |
| RRIRTRPPRLPRPRPRPICWPRP | -0.13 |
| RRIRWRPPRLPRPRPRPKMKPRP | 0.193 |
| RRIRPRPPRLPRPRPRPAMVPRP | 0.844 |
| RRIRPRPPRLPRPRPRPAWEPRP | 0.216 |
| RRIRQRPPRLPRPRPRPVCKPRP | 0.0434 |
| RRIRRRPPRLPRPRPRPLFTPRP | 1.61 |
| RRIRWRPPRLPRPRPRPDMPPRP | 0.325 |
| RRIRYRPPRLPRPRPRPRWRPRP | 0.585 |
| RRIRNRPPRLPRPRPRPGLGPRP | 0.611 |

| Sequence | shrunken log2 fold change |
| --- | --- |
| RRIRVRPPRLPRPRPRPAEFPRP | 0.151 |
| RRIRVRPPRLPRPRPRPEGYPRP | -0.0123 |
| RRIRHRPPRLPRPRPRPNSTPRP | -1.48 |
| RRIRSRPPRLPRPRPRPAHNPRP | 0.133 |
| RRIRPRPPRLPRPRPRPLLQPRP | 0.16 |
| RRIRARPPRLPRPRPRPVLNPRP | -0.0316 |
| RRIRHRPPRLPRPRPRPLLPPRP | -0.0821 |
| RRIRHRPPRLPRPRPRPPCVPRP | -0.108 |
| RRIRMRPPRLPRPRPRPMLSPRP | 0.0117 |
| RRIRVRPPRLPRPRPRPTLMPRP | 0.169 |
| RRIRYRPPRLPRPRPRPGFWPRP | 0.689 |
| RRIRDRPPRLPRPRPRPCCGPRP | 1.13 |
| RRIRTRPPRLPRPRPRPEQDPRP | 0.0235 |
| RRIRYRPPRLPRPRPRPYDRPRP | -0.039 |
| RRIRRRPPRLPRPRPRPSWDPRP | -0.102 |
| RRIRQRPPRLPRPRPRPHVKPRP | -0.274 |
| RRIRWRPPRLPRPRPRPQFWPRP | 0.105 |
| RRIRDRPPRLPRPRPRPRKTPRP | 0.379 |
| RRIRMRPPRLPRPRPRPPIDPRP | 0.0677 |
| RRIRNRPPRLPRPRPRPQVDPRP | -0.706 |
| RRIRHRPPRLPRPRPRPEDYPRP | 0.0112 |
| RRIRPRPPRLPRPRPRPLPLPRP | -0.128 |
| RRIRRRPPRLPRPRPRPDQAPRP | -0.00925 |
| RRIRSRPPRLPRPRPRPWFNPRP | -0.227 |
| RRIRARPPRLPRPRPRPIFHPRP | 0.183 |
